According to patent US20130309222A1 (Janssen / Centocor, published 2013):
Ends that are not written are not given here.

B1: biotinylated, chemically synthesized peptide having SEQ ID NO: 2 (peptide)
peptide: AGYVCDPAGPNCWA
modifications: cysteine pairing not given here; also: biotinylated, position not given here
notes: Fmoc solid phase synthesis; also called 1011A
B2: biotinylated, chemically synthesized peptide having SEQ ID NO: 10 (peptide)
peptide: AGVWCGDETLPPSICFR
modifications: cysteine pairing not given here; also: biotinylated, position not given here
notes: Fmoc solid phase synthesis; also called 1067B

Experiments:
infliximab [1] = experiment: SPR (Biacore S51), biotinylated peptide on streptavidin chip, infliximab as analyte, 1:1 Langmuir fit, average of N=2
infliximab [2] = experiment: ELISA, infliximab captured on goat anti-human Fc, biotinylated peptide titrated, streptavidin-HRP, luminescence

Chain of infliximab (VH, as listed by the source, chain 1 of 2): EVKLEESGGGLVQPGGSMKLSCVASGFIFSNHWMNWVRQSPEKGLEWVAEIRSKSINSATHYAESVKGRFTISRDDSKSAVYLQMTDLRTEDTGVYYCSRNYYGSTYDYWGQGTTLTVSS
Chain of infliximab (VL, as listed by the source, chain 2 of 2): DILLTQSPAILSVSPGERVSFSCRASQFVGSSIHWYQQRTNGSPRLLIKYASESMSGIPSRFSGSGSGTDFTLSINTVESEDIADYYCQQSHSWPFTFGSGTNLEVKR

| Kd (infliximab [1]) [µM] | EC50 (read off the curve) (infliximab [2]) [µM] | Binder |
| --- | --- | --- |
| 0.0171 | ~3 | B1 |
| 0.00917 | ~10 | B2 |
